Test results from patent US20100221257A1 (AstraZeneca / MedImmune, published 2010).
Positions count from the first letter of the chain named. Blank lines part the entries; values can stand above or below the binder they belong to.

Legend:
[1] = target: T1, human IL-1R1, endogenous on human cells (HeLa cells; whole blood) (human, UniProt P14778 18-569); experiment: cell-based or functional assay
T1 sequence (looked up): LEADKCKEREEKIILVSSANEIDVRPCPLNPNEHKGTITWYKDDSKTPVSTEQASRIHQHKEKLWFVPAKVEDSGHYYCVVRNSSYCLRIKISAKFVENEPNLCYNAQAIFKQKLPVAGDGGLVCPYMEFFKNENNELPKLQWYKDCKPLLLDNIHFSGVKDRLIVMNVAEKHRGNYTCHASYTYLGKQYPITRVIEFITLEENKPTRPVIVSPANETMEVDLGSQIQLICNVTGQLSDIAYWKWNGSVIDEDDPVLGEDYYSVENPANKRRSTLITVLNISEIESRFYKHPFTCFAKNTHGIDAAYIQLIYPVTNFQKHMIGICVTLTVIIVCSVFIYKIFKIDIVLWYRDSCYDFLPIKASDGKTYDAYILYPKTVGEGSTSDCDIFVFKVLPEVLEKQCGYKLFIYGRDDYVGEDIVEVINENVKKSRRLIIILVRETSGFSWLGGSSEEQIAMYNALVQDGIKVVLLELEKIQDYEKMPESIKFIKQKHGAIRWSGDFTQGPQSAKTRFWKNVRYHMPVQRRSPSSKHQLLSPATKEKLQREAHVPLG

[2] = target: T1, human IL-1R1, endogenous on human cells …; experiment: cell-based or functional assay; remark: listed apart in the source
[3] = target: T2, human histidine tagged (HIS) IL1RFc fusion protein (human); experiment: HTRF receptor-ligand assay, IgG inhibiting HIS FLAG IL-1Ra binding to cryptate labelled human HIS IL1RFc
T2 construct: Biotinylated or cryptate labelled in some assays; also called human HIS IL1RFc; huIL-1R1-Fc
Protocol: The ability of lead antibodies to inhibit IL-1Ra to IL-1R1 was assessed in a receptor-ligand binding HTRF® (Homogeneous Time-Resolved Fluorescence) assay format for inhibition of HIS FLAG tagged human IL1Ra (In house, E. Coli expressed; HIS FLAG IL-1RA) binding to human histidine tagged (HIS) IL1RFc fusion protein (in house), as described in the Materials and methods section.
A titration of inhibitor was used in order to establish the clone potency as measured by IC₅₀ values in the assay. All dilutions were carried out in assay buffer as for ligand binding assay above. 5 μl of a titration of inhibitor was added to a 384 well low volume assay plate (Costar 3676). This was then followed by addition of 0.4 nM cryptate labelled HIS IL1RFc. Assay plates were then sealed and incubated at room temperature in dark for 1 hour.

[4] = target: T1, human IL-1R1, endogenous on human cells …; experiment: cell-based or functional assay; remark: listed apart in the source

IC50, inhibition of IL-1β induced IL-6 production in human whole blood, donor 1 [1]: 0.091 nM
IC50, inhibition of IL-1β induced IL-6 production in human whole blood, donor 2 [1]: 0.295 nM
IC50, inhibition of IL-1β induced IL-6 production in human whole blood, donor 3 [1]: 0.116 nM
IC50, inhibition of IL-1β induced IL-6 production in human whole blood, donor 4 [1]: 0.309 nM
IC50, inhibition of IL-1β induced IL-6 production in human whole blood, donor 5 [1]: 0.167 nM
IC50, inhibition of IL-1β induced IL-6 production in human whole blood, donor 6 [1]: 0.321 nM
IC50, inhibition of IL-1 alpha induced IL-8 release in HeLa cells (GL IgG2) [2]: 0.0031 nM
IC50, inhibition of IL-1 beta induced IL-8 release in HeLa cells (GL IgG2) [2]: 0.0119 nM
IC50 [3]: 0.181 nM
mean IC50 for the 6 donors, inhibition of IL-1β induced IL-6 production in human whole blood [4]: 0.229 nM
B1: Antibody 6GL IgG2 (antibody, V domains shown)
VH: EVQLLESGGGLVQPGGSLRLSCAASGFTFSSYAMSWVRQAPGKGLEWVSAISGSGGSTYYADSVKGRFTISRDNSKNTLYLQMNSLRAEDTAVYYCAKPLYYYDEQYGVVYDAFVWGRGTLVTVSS
VL: QSVLTQPPSVSGAPGQRVTISCTGSSSNIGAGYDVHWYQQLPGTAPKLLIYGDTHRPSGVPDRFSGSKSGTSASLAITGLQAEDEADYYCQSYDTVRLHHVFGGGTKLTVL
notes: Germlined IgG2, lambda light chain; also called Antibody 6 IgG2; 28PL GL

IC50, inhibition of IL-1 alpha induced IL-8 release in HeLa cells (GL IgG2) [2]: 0.197 nM
IC50, inhibition of IL-1 beta induced IL-8 release in HeLa cells (GL IgG2) [2]: 0.0419 nM
IC50 [3]: 0.363 nM
B2: Antibody 8GL IgG2 (antibody, V domains shown)
VH: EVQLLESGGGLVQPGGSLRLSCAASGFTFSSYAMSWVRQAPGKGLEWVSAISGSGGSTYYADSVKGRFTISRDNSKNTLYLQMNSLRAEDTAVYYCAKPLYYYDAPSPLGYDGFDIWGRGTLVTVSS
VL: B1 VL with V96H, R97L, L98V, H99A
notes: Germlined IgG2, lambda light chain

IC50, inhibition of IL-1 alpha induced IL-8 release in HeLa cells (GL IgG2) [2]: 0.0138 nM
IC50, inhibition of IL-1 beta induced IL-8 release in HeLa cells (GL IgG2) [2]: 0.0242 nM
IC50 [3]: 0.323 nM
B3: Antibody 10GL IgG2 (antibody, V domains shown)
VH: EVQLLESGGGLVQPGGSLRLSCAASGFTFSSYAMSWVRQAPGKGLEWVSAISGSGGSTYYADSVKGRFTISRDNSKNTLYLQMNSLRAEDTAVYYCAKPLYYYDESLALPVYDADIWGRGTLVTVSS
VL: B1 VL with V96R, R97A, L98D, H99D, H100A, V101H
notes: as for B2
